These results are taken from patent publication US20090191623A1.

The target in this assay is azurin from Pseudomonas aeruginosa (Pseudomonas aeruginosa) (UniProt P00282). Kind of assay: SPR equilibrium titration, azurin immobilised on CM5.
Chain of azurin from Pseudomonas aeruginosa (Pseudomonas aeruginosa) (P00282 21-148 limits assumed): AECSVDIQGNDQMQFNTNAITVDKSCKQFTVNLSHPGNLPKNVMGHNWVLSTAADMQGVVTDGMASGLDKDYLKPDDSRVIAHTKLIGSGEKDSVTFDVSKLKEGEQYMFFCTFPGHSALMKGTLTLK

As a reminder, the Kd is the constant that tells how readily two partners part at equilibrium. Take “NCAM (from UniProt P13591 20-718) (receptor)”: the Kd came out at 20 nM.
